The series “AUC” concerns the molecule itself. The series can be described thus: AUC.
The series “SEC” deals with the molecule itself. The series can be described thus: SEC.
The series “crystal structure” concerns the molecule itself. The experiment in a line: crystal structure.

B1: MtmW (enzyme, Streptomyces argillaceus, UniProt Q194Q1 1-326, looked up)
chain: MVAVEFRSLGRSGLSVSEIVYGNLLYPQDDTPDEVVLSSIRAALDAGVTTFDTADVYGMFRSESLLGRALAGTPREELVLCTKVGMPTGFGPNGRGLSRKHVMESVDGSLRRLRVDHIDVYTAHRYDPATPLEELMWTFSDLVRAGKILYVGMSEWPVERIAEAAGIGARLGVPVICHMPRYSMLWRAPEAEVIPACRDLGIGQICYFTLEQGVLTGKYAPGAPPPAGSRATAPKGGRAPLMRRWLDDDKVLGRVERLRPLAEEAGLTTAHLAWVLQNPAVSGAVIGSFNAEQVLANAESAGVRLETDLLVRIDEVLGDSVVHDEE
Regarding B1, the “stoichiometry N” value in the series “AUC” is 8; in “SEC”, approximately 8.

B2: MtmW (ΔN3) (enzyme, Streptomyces argillaceus, UniProt Q194Q1 4-326, looked up)
chain: VEFRSLGRSGLSVSEIVYGNLLYPQDDTPDEVVLSSIRAALDAGVTTFDTADVYGMFRSESLLGRALAGTPREELVLCTKVGMPTGFGPNGRGLSRKHVMESVDGSLRRLRVDHIDVYTAHRYDPATPLEELMWTFSDLVRAGKILYVGMSEWPVERIAEAAGIGARLGVPVICHMPRYSMLWRAPEAEVIPACRDLGIGQICYFTLEQGVLTGKYAPGAPPPAGSRATAPKGGRAPLMRRWLDDDKVLGRVERLRPLAEEAGLTTAHLAWVLQNPAVSGAVIGSFNAEQVLANAESAGVRLETDLLVRIDEVLGDSVVHDEE
With B2, in “crystal structure”, the “stoichiometry N” value stood at 8.
